Data on one protein can be found in PMC13226697, “Stress-induced OMA1-mediated cleavage of AIFM1 suppresses cell growth by controlling mitochondrial OXPHOS activity” (The EMBO Journal, 2026).

The series deals with the molecule itself. Kind of series: native gel or EMSA; CN-PAGE of mitochondria solubilised in 0.5% digitonin, with or without FCCP, immunoblot with AIFM1 antibodies. For orientation: In EMSA bound probe runs differently from free probe, usually more slowly.

B1: AIFM1^TCS/TEV, soluble product of AIFM1^TCS cleaved by IMS-TEV protease (domain or fragment, murine)
chain: GVMGLGLSPEEKQRRAIASATEGGSVPQIRAPSHVPFLLIGGGTAAFAAARSIRARDPGARVLIVSEDPELPYMRPPLSKELWFSDDPNVTKTLQFRQWNGKERSIYFQPPSFYVSAQDLPNIENGGVAVLTGKKVVHLDVRGNMVKLNDGSQITFEKCLIATGGTPRSLSAIDRAGAEVKSRTTLFRKIGDFRALEKISREVKSITVIGGGFLGSELACALGRKSQASGIEVIQLFPEKGNMGKILPQYLSNWTMEKVKREGVKVMPNAIVQSVGVSGGRLLIKLKDGRKVETDHIVTAVGLEPNVELAKTGGLEIDSDFGGFRVNAELQARSNIWVAGDAACFYDIKLGRRRVEHHDHAVVSGRLAGENMTGAAKPYWHQSMFWSDLGPDVGYEAIGLVDSSLPTVGVFAKATAQDNPKSATEQSGTGIRSESETESEASEITIPPSAPAVPQVPVEGEDYGKGVIFYLRDKVVVGIVLWNVFNRMPIARKIIKDGEQHEDLNEVAKLFNIHED
notes: additional glycine residue at the N-terminus, left from the TEV site ENLYFQG after TEV processing; Murine AIFM1 from V98, the residue after the replaced R97, to the end of A.A.1-612; Expected molecular weight ~60 kDa including the Myc tag; The dimer is an estimate from CN-PAGE; also called membrane-dislocated AIFM1 variant; soluble AIFM1^TCS/TEV; not shown: 3x Myc, C-terminal, kept
For orientation: stoichiometry N means a count of units in the complex or per binding partner. For B1, the “stoichiometry N” value is 2.
